# Test results: article PMC2596940
# Like-named read-outs stand apart in the source and are kept apart here.
substance,measurement,setting,value
amyloid precursor protein (APP): K587R,other,SUMOylation at K587,increases
amyloid precursor protein (APP): K587R/K595R,other,SUMOylation at K587,increases
same,other,SUMOylation at K595,increases
amyloid precursor protein (APP): K595R,other,SUMOylation at K595,increases
